15 molecules from US20240117334A1, “FACTOR B PROTEASES” (Vertex Pharmaceuticals Incorporated, priority 2021, published 2024) can be followed below.

Substitutions are numbered along the chain they refer to. In names and notes the source's numbering stands. Read-outs that look alike come from different tables or passages of the source.

One series addresses Human Factor B (Homo sapiens, UniProt P00751). Kind of series: Human Factor B cleavage EC50 in 80% human plasma (Table 10A). Type of series: biochemical. As for the experimental part:
Cleavage of Factor B by various engineered proteases was evaluated. Engineered chymase-, MTSP-1-, and uPA-based proteases were tested. All references in this Example, including Tables 10A, 10B, 11A, and 11B, to engineered proteases are depicted in chymotrypsin numbering. The chymotrypsin numbering key for the modified protease domains of engineered proteases are found in Tables 2, 4, and 6 for uPA, MTSP-1, and chymase, respectively. These experiments were also performed to evaluate the stability of non-naturally occurring chymases in various media, including cynomolgus monkey vitreous humor, human plasma, and phosphate buffered saline (PBS). Briefly, Factor B was diluted into an assay buffer and incubated at 37° C. with naturally occurring (wild type) and non-naturally occurring (engineered) proteases in vitreous humor, plasma, or PBS, and the reactions were quenched with HCl at various time points. The time points tested for chymase include T=0 which used 6 hours pre-incubation, T=2 hours which used 4 hours pre-incubation, T=4 hours which used 2 hours pre-incubation, and T=6 hours which used 0 hours pre-incubation. Assaying of the sample was performed with ELISA, or alpha screen for human C3 cleavage, using standard protocols.
A summary of the results is presented in Tables 10A-10B below, showing the various tested proteases, the concentration of the protease used in nM and the EC50 of human Factor B cleavage. Table 10 presents human Factor B cleavage by various non-naturally occurring chymase-based engineered proteases, tested in 80% human plasma, compared against a chymase comprising the mutation string […]. Blank cells indicate that a test was not performed for a particular protease mutation string.

Series [1] in a line: Half-life in 50% human plasma of chymase-based engineered proteases. It is filed as in vitro ADME. Particulars: EGVD′AE substrate. The protocol: Table 10B presents human Factor B cleavage by various engineered chymase-, MTSP-1-, or uPA-based proteases, tested in mouse or human plasma. For ELISA analysis of Factor B cleavage, briefly, anti-Ba was used, and Bb was detected with anti-Bb. A dynamic range of 25-1600 pM was used. Half-life in 50% human plasma was also calculated for various chymase-based engineered proteases.

Setting [2] is: chymase-based engineered proteases, no plasma stated, read-out: fB Cleavage EC50.
Setting [3] is: read-out: fB Cleavage, 80% plasma EC50, chymase-based, 80% human plasma.

Sequence of Human Factor B (P00751 26-764): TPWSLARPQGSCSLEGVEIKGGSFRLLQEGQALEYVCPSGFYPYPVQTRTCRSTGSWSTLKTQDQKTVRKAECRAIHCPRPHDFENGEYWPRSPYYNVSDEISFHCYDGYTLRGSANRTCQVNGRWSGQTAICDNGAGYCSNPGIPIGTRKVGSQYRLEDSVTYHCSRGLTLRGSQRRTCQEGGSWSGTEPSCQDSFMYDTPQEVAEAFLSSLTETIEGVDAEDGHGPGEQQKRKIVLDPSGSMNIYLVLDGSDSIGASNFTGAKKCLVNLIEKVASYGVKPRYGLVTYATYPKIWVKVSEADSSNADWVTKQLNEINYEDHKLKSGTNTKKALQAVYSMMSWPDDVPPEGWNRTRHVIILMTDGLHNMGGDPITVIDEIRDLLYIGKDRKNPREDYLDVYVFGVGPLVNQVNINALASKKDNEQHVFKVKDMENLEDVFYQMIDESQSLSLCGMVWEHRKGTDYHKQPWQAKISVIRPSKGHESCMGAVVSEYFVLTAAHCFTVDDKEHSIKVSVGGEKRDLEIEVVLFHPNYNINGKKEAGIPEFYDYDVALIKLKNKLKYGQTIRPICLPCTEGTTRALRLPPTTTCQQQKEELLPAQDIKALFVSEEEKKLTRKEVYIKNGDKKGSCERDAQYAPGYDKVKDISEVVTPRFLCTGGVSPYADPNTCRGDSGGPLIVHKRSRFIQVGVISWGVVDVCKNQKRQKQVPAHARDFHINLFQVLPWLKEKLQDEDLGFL

B1: C22S/F173L/Y215H/A226R (protein, listed as Homo sapiens)
chain: IIGGTESKPHSRPYMAYLEIVTSNGPSKFCGGFLIRRNFVLTAAHCAGRSITVTLGAHNITEEEDTWQKLEVIKQFRHPKYNTSTLHHDIMLLKLKEKASLTLAVGTLPFPSQFNFVPPGRMCRVAGWGRTGVLKPGSDTLQEVKLRLMDPQACSHLRDFDHNLQLCVGNPRKTKSAFKGDSGGPLLCAGVAQGIVSHGRSDAKPPRVFTRISHYRPWINQILQAN
B1: in the series with Human Factor B (setting [2]), the EC50 was found to be 5.99 µM.

B2: C22S/V138A/S189T/A226R (protein, listed as Homo sapiens)
chain: B1 chain with V125A, L157F, S176T, H198Y
Regarding B2, the EC50 in the series with Human Factor B (setting [2]) is 4.42 µM.

B3: C22S/D175N/A226R (protein, listed as Homo sapiens)
chain: B1 chain with L157F, D159N, H198Y
On to B3, for which the “t1/2 in 50% human plasma (min) (EGVD′AE)(SEQ ID NO: 13)” value in series [1] was found to be 6.2 min. For the same molecule, the EC50 with Human Factor B (setting [2]) was 0.564 µM; with Human Factor B (setting [3]) it was 7.77 µM.

B4: C22S/F173Y/A226R (protein, listed as Homo sapiens)
chain: B1 chain with L157Y, H198Y
With B4, the “t1/2 in 50% human plasma (min) (EGVD′AE)(SEQ ID NO: 13)” value in series [1] amounted to 5.9 min. Moreover, the EC50 was determined as 0.65 µM with Human Factor B (setting [2]) and 21 µM in the series with Human Factor B (setting [3]).

B5: C22S/V138L/S189T/A190G/A226R (protein, listed as Homo sapiens)
chain: B1 chain with V125L, L157F, S176T, A177G, H198Y
With B5, the EC50 with Human Factor B (setting [2]) came to 4.16 µM.

B6: C22S/V138I/L160V/S189T/A226R (protein, listed as Homo sapiens)
chain: B1 chain with V125I, L146V, L157F, S176T, H198Y
In the case of B6, in the series with Human Factor B (setting [2]), the EC50 was found to be 7.13 µM.

B7: C22S/V138L/A226R (protein, listed as Homo sapiens)
chain: B1 chain with V125L, L157F, H198Y
For B7, the EC50 with Human Factor B (setting [2]) came out at 3.48 µM.

B8: C22S/V138A/S189T/A226R/F228M (protein, listed as Homo sapiens)
chain: B1 chain with V125A, L157F, S176T, H198Y, F209M
Regarding B8, the EC50 with Human Factor B (setting [2]) worked out at 1.77 µM.

B9: C22S/V138A/G145D/S189T/A190S/A226R (protein, listed as Homo sapiens)
chain: B1 chain with V125A, G132D, L157F, S176T, A177S, H198Y
With B9, the EC50 with Human Factor B (setting [2]) came to 3.81 µM.

B10: C22S/V138S/S189T/A226R/F228M (protein, listed as Homo sapiens)
chain: B1 chain with V125S, L157F, S176T, H198Y, F209M
As for B10, in the series with Human Factor B (setting [2]), the EC50 came to 2.98 µM.

B11: C22S/A220S/A226R (protein, listed as Homo sapiens)
chain: B1 chain with L157F, H198Y, A203S
Turning to B11, in the series with Human Factor B (setting [2]), the EC50 was 5.56 µM.

B12: C22S/S218I/A226R (protein, listed as Homo sapiens)
chain: B1 chain with L157F, H198Y, S201I
On to B12, for which the “t1/2 in 50% human plasma (min) (EGVD′AE)(SEQ ID NO: 13)” value in series [1] is recorded as 7.8 min. Further, in the series with Human Factor B (setting [2]), the EC50 was 0.83 µM.

B13: C22S/V138A/A226R (protein, listed as Homo sapiens)
chain: B1 chain with V125A, L157F, H198Y
For the molecule B13, in the series with Human Factor B (setting [2]), the concentration for a half-maximal effect (EC50) is 2.94 µM.

B14: C22S/A226R/F228A (protein, listed as Homo sapiens)
chain: B1 chain with L157F, H198Y, F209A
As for B14, in the series with Human Factor B (setting [2]), the EC50 is 5.07 µM.

B15: C22S/V138T/A190S/V213A/A226R (protein, listed as Homo sapiens)
chain: B1 chain with V125T, L157F, A177S, V196A, H198Y
On to B15, for which the EC50 with Human Factor B (setting [2]) came to 6.71 µM.
